Data reported in the nanobody polyreactivity screen of Harvey et al. (2022).

Test: yeast display, Sf9 membrane polyspecificity reagent, FACS + sequencing; frameworks hold sequencing errors
How it was run: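 Nanobodies came from a synthetic yeast display library in Saccharomyces cerevisiae BJ5465, induced with galactose for 36–48 hours and stained for 1 hour at 4 °C with 10% biotinylated, detergent-solubilized Sf9 membrane reagent. Cells were enriched on streptavidin microbeads and then FACS-sorted, with low and high (top ~1%) gates set on anti-HA fluorescence for expression and streptavidin fluorescence for reagent binding. Each polyreactivity label reflects the gate a clone came from. Genes were amplified by colony PCR, sequenced by MiSeq 2 × 250 and filtered by CDR length.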

Sequence	polyreactivity (PSR sort gate)
QVQLVESGGGLVQAGGSLRLSCAAYGGTFYRYAMGWYRQAPGKERELVAVISKRGGTTYYADSVKGRFTISRDNAKNTVYLQMNSLKPEDTAVYYCADRPYYWGQGTQVTVSS	high polyreactivity
QVQLVESGGGLVQAGGSLRLSCAAYGGTLPVNAMGWYRQAPVKERELVAAITTGTSTNYADSVKGRFTISRDNAKNTVYLQMNSLKPEDNAVYYCAKDQADFAYGYWGEGTQVTVSS	low polyreactivity
QVQLVESGGGLVQAGGSLRLSCAAYGIIFTDYAMGWYRQAPGKERELVAANSSGGGSTYYADSVKGRFTISRDNAKNTVYLQMNSLKPEDTAVYYFAAQSSGSYGFDHWGQGTQVTVSS	high polyreactivity
QVQLVESGGGLVQAGGSLRLSCAAYGLTFGYYVMGSYRQAPGKERELVADINFSGGSTYYADSVKGRFTISRDNAKNTVYLHMNSLKTEDTAVYYCNAVVYRFTVSSGYESWGEGTQVTVSS	low polyreactivity
QVQLVESGGGLVQAGGSLRLSCAAYGLTFHYYDMGWYRQAPGKERELVAAISAGGVNTYYADSVKGRFTISRDNAKNTVYLQMNSLKPEDTAVYFCAADYYVDVWSYTYGYWGQGTQVTVSS	high polyreactivity
QVQLVESGGGLVQAGGSLRLSCAAYGLTFYFYAMGWYRQAPGKERELVAAIDWGGGSTYYADSVKGRFTISRDNAKNTVYLQMNSLKPEDTAVYYCAARGYYYNYDVNYWGQGTQVTVSS	low polyreactivity
QVQLVESGGGLVQAGGSLRLSCAAYGRIFNEYAMGWYRQAPGKERELVAAITYSDDSTYYADSVKGRFTISRDNAKNTVYLQMISLKPEDTAVYYRNADTPVWDGHAYPVDYWGQGTQVTVSS	low polyreactivity
QVQLVESGGGLVQAGGSLRLSCAAYGRIFRGYAMGRYRQAPGKEREFVAAITKNGGSTYYADSVKGRFTISRDNAKNTVYLQMNSLKPEDTAVYYCAVRALDPYTGKSDYWGQGTQVTVSS	low polyreactivity
QVQLVESGGGLVQAGGSLRLSCAAYGRIFVFYDMGWYRQAPGKDRELVATISFRGGSTYYADSVKGRFTISRDNAKNTVYLQMNCLKPEDTAVYYCAKENKRGYSTSGYYYWGQGTQVTVSS	low polyreactivity
QVQLVESGGGLVQAGGSLRLSCAAYGRISAMGWYRQAPGKERELVAAISRGGSTYYADSVKGRFTISRDNAKNTVYLQMNSLKPEDTAVYYCARRYASTGYDYWGQGTQVTVSS	high polyreactivity
QVQLVESGGGLVQAGGSLRLSCAAYGRTFGPNVMGWYRQAPGKERELVAVITSSGGRTYYADSVKGRFTISRDNAKNTVFLQMNSLKPEDTAVYSCAADAKKFVGTKNAEHVYWGQGTQVTVSS	low polyreactivity
QVQLVESGGGLVQAGGSLRLSCAAYGRTFSWNAMGWYRQAPGKERELVAGITGRGRSTYYADSVKGRFTISRDNAKNTVYLQMIRLKPEDTAVYYCAARNWQALYYGYGYDYWGHGTQVTVSS	high polyreactivity
QVQLVESGGGLVQAGGSLRLSCAAYGRTIFFNAMGWYIQAPGKERELVAAISRGGSRTFYADSVKGRFTISRDNAKNTVYFQMNSLKPEDPAVYYCNAVAQSGRYDYWGQGTQVTVPS	high polyreactivity
QVQLVESGGGLVQAGGSLRLSCAAYGSIFGYYAMGWYRQAPVKERALVAAITWSGDSTYYADSVKGRFTISRDNAKNTVYLQMKSLNPEDTAVYYCSARQFVHTRYFSFGYWGQGTQVTVSS	low polyreactivity
QVQLVESGGGLVQAGGSLRLSCAAYGSIFHVYAMGWYRQAPGKERELVAAIDRSGGSTYYADSVKGRFTISRDNAKNTVYLQMNSLKPEDTSVYYCAKDVLGGQITDGVGNDYWGQGTQVTLSS	low polyreactivity
QVQLVESGGGLVQAGGSLRLSCAAYGSIFLYYTMGRYRQAPGKERELVAAISRSGGSTYYADSEKGRFTISRDNALNTVYLQMNSLKPEDTAVYFCGSRSGYIYEYWGQGTQVTVSS	high polyreactivity
QVQLVESGGGLVQAGGSLRLSCAAYGSIFRVYAMGWYREAAGKERELVATISWSAGSTYYADSVKGRFTISRDNAKNTVYLQMNSLKPEDTAVYYCAADPVGYYDPSDYWGQGTQVTVSS	low polyreactivity
QVQLVESGGGLVQAGGSLRLSCAAYGSIFSYNAMGWYRPAPGKERELVAAITKSGGRTYYADSVKGRFTISRANAKNTVYLQMNSLKPEDTAVYYCNARSGSQYDYWGQGTQVTVSS	high polyreactivity
QVQLVESGGGLVQAGGSLRLSCAAYGSIFTGNTMGWYRQATGKERELVATISRRGGSTYYADSVKGRFTISRDNAKNTVYLQMNSLKPEDTAVYYCARGTVYLTWRNDYWGQGTQVTVSS	high polyreactivity
QVQLVESGGGLVQAGGSLRLSCAAYGSIFTRYAMGWYIQAPGKERELVAAISKRGGRTYYADSVKGRFTISRDNAKNTVYLQMNSLKPEDTAVYYCNAGSYDYYDGSWSYDYWGQGTQVTVSS	high polyreactivity
QVQLVESGGGLVQAGGSLRLSCAAYGSIFYFNAMGWYRQAPGKERELVAAITYNGGSTRYADSVKGRFTISRDNAKNTVYLQMNSLKPEDTAVYYCAARAKYGPEDGYWGQGTQVTVSS	high polyreactivity
QVQLVESGGGLVQAGGSLRLSCAAYGSIFYYYAKGWYRQAPGKERELVAAINGGDTYYADSVKGRFTISRDNAKNTVYLHMNSLKPEDTAVYYCAAEGVTVEWDYDYWGQGTQVTVSS	low polyreactivity

Sequence	polyreactivity (PSR sort gate)
QVQLVESGGGLVQAGGSLRLSCAAYGSTFDRNAMGWYRQAPGKERDLVAAISWRGGSTYYSDSVKGRFTISRDNAKNTVYLQMNSLKPDDTAVYYCNKVVTWQGPYDYWGQGTQVTVSS	high polyreactivity
QVQLVESGGGLVQAGGSLRLSCAAYGSTFDRNVMGWYRQAPGKERELVAAISRVSSTNYADSVKGRFTISRDNAKNTVYLQMNSLKPEDTAVYYCAADRPGSIMNYWGQGTQVTVSS	low polyreactivity
QVQLVESGGGLVQAGGSLRLSCAAYGSTFKPYAMGRYRQAPGKERELVADITGGGSTNYADSVKGRFTISRDNAKNTVYLQMNSLKPEDTAVYYCNADPVRSTYSYDYWGQGTQVTVSS	low polyreactivity
QVQLVESGGGLVQAGGSLRLSCAAYGSTFTYYAMGWYRQAPGKERELVAAISSSGGSTYYADSVKGRFTISRDNAKNTVYFQMNSLKPEDTAVYYCAARRKFPYRHDYWGQGTQVTVSS	high polyreactivity
QVQLVESGGGLVQAGGSLRLSCAAYGSTFVSNAMGWSRPAPGKERELVAAISSSGGSTYYADSVKGRFTISRDTATNTVYLQMNSLKPEDTAVYYCVDYYNGYTHNYNYWGQGTQVTVSA	low polyreactivity
QVQLVESGGGLVQAGGSLRLSCAAYGSTFWVYAMVWYRQAPGKERELVAAIDYSGGSTYYADSVKGRFTISRDNAKNNVYLQMNSLKPEDTAVYYCAAGEGQYWLWDGEGEYDYWGQGTQVTVSS	low polyreactivity
QVQLVESGGGLVQAGGSLRLSCAAYGYIFIRNAMGCYRQAPGKERELVAAISWTGGNTYYADSVKGRFTISRDNAKNTVYLQMNSLIPEDTAVYYCAAQRSVFKSFRTTYVSYDYWGQGTQVTVSS	high polyreactivity
QVQLVESGGGLVQAGGSLRLSCADSARTFYTNAKGWYRQAPGKERELVAAITGSDGNTYYADSVKGRFTISRDNAKNTVYLQMISLKPEDTAVYYGYDYWVQGTQVTVSS	low polyreactivity
QVQLVESGGGLVQAGGSLRLSCADSGFIFYFYTKGCYIQSPGKDRELVSGITWLDGSTYYADSVKGRFTISRDNAKNTVYLQMNSLKPEDTAVYYCNRDQWPWESGYAYNYWGQGTQVTVSS	low polyreactivity
QVQLVESGGGLVQAGGSLRLSCADSGFTFVEYAMGWYRQAPGKERELVAAITRSGTRTYYADSVKGRFTISRDNAKNTVYLQMNSLKPEDTAVYYCNKPYSKTNHYDSWGQGTQVTVSS	high polyreactivity
QVQLVESGGGLVQAGGSLRLSCADSGIIFHEYAMGWYRQAPGKERELVASISWNDGSTYADSVKGRFTISRDNAKNTVYLQMNSLKPEDTAVYYCAADYPYYPFSSIYDYWGQGTQVTVSS	low polyreactivity
QVQLVESGGGLVQAGGSLRLSCADSGIIFITNAMGWYRQAPGKERELVAAISSTVSTNYADSVKGRFTISRDNAKNTVYLQMNSLIQEDTAVYFCAAEWGLTQGESIYDFWGQGTQVTVSS	low polyreactivity
QVQLVESGGGLVQAGGSLRLSCADSGIIFNYYAMGWSRQAPGKEREFVASITSSGSSTYYADSVKGRFTITRDNAKNTVYLQMNSLKPEDTAVYYCAARYLWPKQGGGWGYYSCGQGTQVTVSS	high polyreactivity
QVQLVESGGGLVQAGGSLRLSCADSGIIFTQYAMGWYRQAPGKERELVAGISKSGGSTYYADSVKGRFTISRDNAKNTVYLQMNSLKPEDTAVYYCAAPVPKTDKLLRMYYWGQGTQVTVSS	high polyreactivity
QVQLVESGGGLVQAGGSLRLSCADSGITFSRNAMGWYRQAPGKEMELVATITSGGSTNYADSVKGRFTISRDNAKNTVYLQMNSLKPEDTAVYYCNAVWNTFISGRSYDYWGQGTQVTVSS	low polyreactivity
QVQLVESGGGLVQAGGSLRLSCADSGITFWKYAMGWYRQAPGKERELVAAISGRGGSTYYADSVKGRFTISRDNAKNTVYLQMNSLKPEDTAVYYCAKYPGISGYNYWGQGTQVTVSS	high polyreactivity
QVQLVESGGGLVQAGGSLRLSCADSGITLYEYAMGWYRKAPGKERELVAAISTSGGRTRYADSVKGRFTISRDNAKNTVYLQMNSLKPEDTAVYYCAASGFVQISNPRRDYWGLGTQVTVSS	high polyreactivity
QVQLVESGGGLVQAGGSLRLSCADSGLIFKSYAMGWYRQARGKERELVAAISGNDGSTYYADSVKGRFTISRDNAKNTVYLQMNSLKPEDTAVYYCAADFSGPWYEYTFNYCGQGTQVTVSS	high polyreactivity
QVQLVESGGGLVQAGGSLRLSCADSGLIFYRYAMGWYRQAPGTERELVAAISGSVGSTYADSVKGRFTISRDNAKNTVYLQMNSLKPEDTVVYYCSRETYRSYGAYDYWGLGTQVTVSS	low polyreactivity
QVQLVESGGGLVQAGGSLRLSCADSGLILHKYAMGWYRQAPGKDRELVASINSGANTNYADSVKGRFTISRDNAKNTVYLQMNSLKPEDSAEYYCNADPGFRSGEYGYSSFDYWGQGTQVTVSS	low polyreactivity
QVQLVESGGGLVQAGGSLRLSCADSGLTFEGYAMGWNRQAPGKERELVAAITWSGGNTYYADSVKGRFTSSRDNAKKTVYLQMNSLKPEDTAVYYCAAQRPSRDSRPFEYWGQGTQVTVSS	low polyreactivity
